We go through one molecule from US5882644A, “Monoclonal antibodies specific for the platelet derived growth factor β receptor and methods of use thereof” (Protein Design Labs, Inc., priority 1996, dated 1999).

Entries after “also recorded” stand apart in the source; their conditions may differ.

The subject of experiment [1] is PDGF-R β expressed on the cell membrane. Kind of experiment: Flow cytometry binding to CHO PDGF-R β transfectant cells. On the set-up: species or system human. Conditions: 0.1-1 μg/ml antibody; CHO PDGF-R β transfectants vs untransfected CHO. The protocol: The cells were washed once in cold PBS and resuspended in 50 μl of PBS containing 10 μg/ml FITC-conjugated goat anti-mouse IgG and incubated for 30 min. After another wash, the cells were fixed by resuspension in 0.25 ml of paraformaldehyde in PBS, and analyzed for fluorescence by flow cytometry on a FACScan (Becton Dickinson).
For orientation: A flow cytometer gives signals particle by particle.

Experiment [2] deals with PDGF-R β. Kind of experiment: Competitive binding with 125I-PDGF BB on transfectant cells expressing PDGF-R β. On the set-up: species or system human. Particulars: 4° C. The protocol:
To determine the ability of muM4TS.11 and muM4TS.22 to block binding of PDGF BB to PDGF-R β, the following competitive binding experiments were performed. Transfectant cells expressing PDGF-R β were harvested, washed twice with cold DMEM, and resuspended at 10^6 cells/ml in DMEM. The assay was carried out in triplicate by incubating 100 μl of the cell suspension with either: 1) no antibody (to determine total binding); 2) varying concentrations of antibody; or 3) 100 ng cold PDGF BB (to saturate specific binding sites and determine non-specific binding) for 15 minutes at 4° C. Each sample received 1.0 ng ^125 I-labeled PDGF BB, and was incubated for an additional 60 min at 4° C. Unbound ^125 I-labeled PDGF BB was separated from that bound to the cell by layering the sample over a mixture of 80% dibutylphthalate, 20% olive oil in a microfuge tube, and microfuging briefly to pellet the cells through the oil mixture. The tubes were placed in dry ice to freeze the contents, the tip of the tube containing the cell pellet was cut off into a vial, and radioactivity was determined in a gamma counter.
To assess the ability of HuM4TS.22 to block the binding of PDGF BB to its receptor, competitive binding experiments of HuM4TS.22 with ^125 I-PDGF BB were performed according to the method described in Example 3.
To assess the ability of muM4TS.11 and HuM4TS.11 to block the binding of PDGF BB to the PDGF β receptor, competitive binding experiments of these antibodies with ^125 I-PDGF BB were performed according to the method described in Example 3.

The test system of experiment [3] is PDGF-R β. The experiment in a line: Competition with 125I-labeled murine antibody tracer on Sp2/0 PDGF-R β transfectant cells. In kind it is binding, human. Particulars: calculated from competitive binding data; Sp2/0 PDGF-R β transfectants. The protocol: To assess the ability of HuM4TS.22 to compete with muM4TS.22 for receptor binding, increasing concentrations of the two antibodies were respectively incubated on ice for one hour with Sp2/0 PDGF-R β transfectant cells and a fixed amount of tracer ^125 I-labeled muAb. The sample tubes were processed as in the blocking experiment just described.
To assess the ability of HuM4TS.11 to compete with the muAb for receptor binding, increasing concentrations of the two antibodies were respectively incubated on ice for one hour with Sp2/0 PDGF-R β transfectant cells and a fixed amount of tracer ^125 I-labeled M4TS.11. The sample tubes were processed as in the blocking experiment described. […] The binding affinities calculated from the data were: Ka =5×10^8 M^-1 for the muAb and 3×10^7 M^-1 for the HuAb.

Experiment [4] relates to intima of left common carotid artery after balloon injury. The experiment in a line: Rat carotid balloon injury model, intimal thickening. Conditions: 21 days after injury. The experiment is classed as in vivo. An excerpt:
To perform the vascular injury, under sterile conditions and after general anesthesia the left common carotid arteries of S-D rats were exposed. Anesthesia was induced with ketamine and xilaxine by IP injection. Additional anesthesia was given at half a dose every forty-five minutes. Through a midline neck incision the left common, external and internal carotid arteries were exposed. A 2F Fogarty balloon catheter was introduced in the left external carotid artery. The balloon was inflated sufficiently to generate slight resistance and withdrawn 3 times to consistently produce endothelial denudation of the entire length of the left common carotid artery (LCCA), thus simulating vascular injury after balloon angioplasty in human patients. Upon removal of the catheter, the left external carotid artery was ligated with 3.0 silk. The skin was closed with surgical wound clips. […]
For measurement of intimal thickening, the left common carotid arteries were sectioned every 3 mm, from the proximal to the distal end. […] Cross-sectional areas for lumen, intima and media of the artery were determined as a mean of the 3 segments with the greatest intimal thickness. […] Differences between placebo or control groups and treated groups were analyzed for statistical significance by analysis of variance and a two-tailed, unpaired Student's t test […]

B1: muM4TS.11: murine monoclonal antibody to PDGF-R β, variable regions SEQ ID NOS:10 and 12; epitope in fourth extracellular domain (antibody, V domains shown)
VL: METETLLLWVLLLWVPGSTGDIVLTQSPPSLAVSLGQRATISCRASESVDSYGNSFMHWYQQKPGQPPKLLIYRASNLESGIPARFSGGGSRTDFTLTINPVEADDVATYYCQQSNEDPPTFGGGTKLEIK
VH: MERHWIFLFLFSVTAGVHSQVQLQQSGAEVAKPGASVKMSCKASGYTFTNCWMHWVKQRPGQGLEWIGYINPTTGYSEYNQNFKDKATLTADKSSNTAYIQLSSLTSEDSAVYYCTSNYGHYDWFANWGQGTLVT
Regarding B1, the “specific binding to membrane PDGF-R β by flow cytometry” value in experiment [1] is reported as “specifically bound to CHO PDGF-R β transfectant cells but not to untransfected CHO cells”. For the same molecule, the “blocking of 125I-PDGF BB binding to PDGF-R β” value with PDGF-R β [2] is recorded as “did not; also recorded: neither muM4TS.11 nor HuM4TS.11 were able to inhibit binding of PDGF BB to its receptor”. For the same molecule, the “binding affinity Ka” value with PDGF-R β [3] is 5e+08 M⁻¹. Further, the “less thickening of the artery intima than placebo or control groups” value in experiment [4] (high dose: 4 mg bolus, then 2 mg IV every 24 hr for 4 days) is recorded as “approximately 60%”; in experiment [4] (low dose: 10% of the high-dose regimen), “approximately 40%”.
